Reference: article PMC9915621
Where a chain is given by its changes, count along the chain named. Read-outs that look alike come from different tables or passages of the source.

B1: glpFKD(UTR) RNA (ssRNA)
RNA: AUAAUUUUAAUAAGGCUUUUAUUAGAAAAAUUAAU
B2: glpFKD(-7/+35) (dsDNA)
DNA 1: ATTAAATATAATTTTAATAAGGCTTTTATTAGAAAAATTAAT
DNA 2: ATTAATTTTTCTAATAAAAGCCTTATTAAAATTATATTTAAT
B3: ssglpF (ssDNA)
DNA: B2 DNA 1

Key:
Assay in all cases: EMSA
PlzA RD-RD [1] = molecular target: T1, PlzA RD-RD (Borrelia burgdorferi B31, UniProt O51675 1-261, R145D;R149D)
T1 sequence: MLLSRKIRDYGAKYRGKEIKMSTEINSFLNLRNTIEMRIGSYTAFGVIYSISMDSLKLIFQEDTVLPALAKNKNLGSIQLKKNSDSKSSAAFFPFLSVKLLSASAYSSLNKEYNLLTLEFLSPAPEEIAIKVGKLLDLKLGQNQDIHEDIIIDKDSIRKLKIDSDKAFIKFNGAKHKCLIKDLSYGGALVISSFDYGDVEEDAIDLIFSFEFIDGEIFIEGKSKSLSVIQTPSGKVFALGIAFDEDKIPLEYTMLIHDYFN

PlzA WT [2] = molecular target: T2, PlzA WT (Borrelia burgdorferi B31, UniProt O51675 1-261)
T2 sequence: T1 sequence with D145R, D149R

PlzA WT [3] = molecular target: T2, PlzA WT; remark: listed apart in the source
PlzA CTD = molecular target: T3, PlzA CTD (Borrelia burgdorferi B31, UniProt O51675 142-261)
T3 sequence: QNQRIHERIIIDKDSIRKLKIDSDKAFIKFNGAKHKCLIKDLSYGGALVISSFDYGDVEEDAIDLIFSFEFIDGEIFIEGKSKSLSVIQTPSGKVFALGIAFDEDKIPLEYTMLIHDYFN

PlzA WT [4] = molecular target: T2, PlzA WT; remark: listed apart in the source
PlzA WT [5] = molecular target: T2, PlzA WT; remark: listed apart in the source
PlzA RD-RD [6] = molecular target: T1, PlzA RD-RD; remark: listed apart in the source
PlzA WT [7] = molecular target: T2, PlzA WT; remark: listed apart in the source

Binder	binding result (PlzA RD-RD [1])	Kd (PlzA WT [2]) [µM]	Kd (PlzA WT [3]) [µM]	binding result (PlzA CTD)	Kd (PlzA WT [4]) [µM]	Kd (PlzA WT [5]) [µM]	binding result (PlzA RD-RD [6])	Kd (PlzA WT [7]) [µM]
B1	no binding	0.95	4.14	no binding	–	–	–	–
B2	–	1.09	4.22	no binding	1.33	1.25	no binding	2.81
B3	–	4.42	–	–	–	–	–	–
